# Assay results as given in patent US20240075105A1.
# Target: the cell surface receptor (of interleukin-2) on CTLL-2 cells
# Assay: cell-based or functional assay
substance,measurement,value
"recombinant human interleukin-2/serum albumin fusion protein (rhIL-2/SA, code 9333) (ligand)",specific bioactivity (CTLL-2 cell/MTT colorimetry),2.39e+06 IU/mg
"recombinant human serum albumin/interleukin-2 fusion protein (rHSA/IL-2, code 9222) (ligand)",specific bioactivity (CTLL-2 cell/MTT colorimetry),2.46e+06 IU/mg
